Laboratory results reported in PMC11602657, “Nap1 and Kap114 co-chaperone H2A-H2B and facilitate targeted histone release in the nucleus” (The Journal of Cell Biology, 2024).
Substitutions are numbered along the chain they refer to. Numbers in names are those of the source. Where “and” joins values, the source holds several entries; their conditions need not be identical. Equal values may be shown once.

Assays:
Kap114 = molecular target: T1, Kap114 (S. cerevisiae, UniProt P53067 1-1004); test: SEC-MALS; proteins alone or binary mixtures at the indicated molar ratios to 80 µM Kap114; Assay buffer without glycerol; Nap1 counted as dimer; conditions: both partners purified
T1 construct: also called Sc Kap114; source: E. coli, expressed as GST-Kap114, purified (Glutathione Sepharose 4B, on-column TEV cleavage, SEC)
T1 sequence: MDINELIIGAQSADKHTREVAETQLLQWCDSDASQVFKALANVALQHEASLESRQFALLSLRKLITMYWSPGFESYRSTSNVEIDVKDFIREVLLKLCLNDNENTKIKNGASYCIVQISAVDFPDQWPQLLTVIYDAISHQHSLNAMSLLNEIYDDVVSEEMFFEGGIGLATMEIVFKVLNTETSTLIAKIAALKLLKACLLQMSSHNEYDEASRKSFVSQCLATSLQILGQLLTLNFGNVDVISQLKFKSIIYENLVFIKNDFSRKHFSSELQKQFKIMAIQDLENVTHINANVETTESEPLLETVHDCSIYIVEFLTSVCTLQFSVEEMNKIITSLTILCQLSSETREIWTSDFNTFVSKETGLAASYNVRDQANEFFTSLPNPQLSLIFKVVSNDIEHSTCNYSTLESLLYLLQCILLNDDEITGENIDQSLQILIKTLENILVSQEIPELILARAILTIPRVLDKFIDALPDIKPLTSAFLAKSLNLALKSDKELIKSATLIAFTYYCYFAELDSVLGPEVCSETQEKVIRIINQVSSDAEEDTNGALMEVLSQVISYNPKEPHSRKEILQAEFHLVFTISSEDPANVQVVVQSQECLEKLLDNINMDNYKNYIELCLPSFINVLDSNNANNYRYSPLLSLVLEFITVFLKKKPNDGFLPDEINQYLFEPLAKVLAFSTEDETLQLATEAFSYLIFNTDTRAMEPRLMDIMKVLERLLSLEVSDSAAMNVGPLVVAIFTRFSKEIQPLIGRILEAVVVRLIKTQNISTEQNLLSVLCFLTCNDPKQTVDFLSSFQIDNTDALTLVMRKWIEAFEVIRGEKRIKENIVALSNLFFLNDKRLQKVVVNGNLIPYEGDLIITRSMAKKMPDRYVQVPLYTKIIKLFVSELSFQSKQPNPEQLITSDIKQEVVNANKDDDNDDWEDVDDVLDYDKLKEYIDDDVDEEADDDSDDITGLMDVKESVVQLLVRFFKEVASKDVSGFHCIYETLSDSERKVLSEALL

[1] = molecular target: the molecule itself; test: as above
[2] = molecular target: T2, MBP-Kap114 YDAA (Y939A/D942A) (S. cerevisiae, UniProt P53067 1-1004, Y939A | D942A); test: pull-down; MBP-Kap114 (WT or mutant; or MBP alone) 1 µM immobilized on amylose resin, equimolar Nap1_(2) ± H2A-H2B (1 or 2 µM) ± Ran^GTP; Assay Buffer (20 mM HEPES pH 7.4, 150 mM NaCl, 2 mM MgCl2, 10% glycerol, 2 mM DTT), 30 min at 4°C; Coomassie-stained SDS-PAGE; conditions: both partners purified
T2 construct: Kap114, S. cerevisiae, h19loop mutant; source: E. coli BL21 Gold, purified; not shown: MBP, N-terminal, kept
T2 sequence (looked up): T1 sequence with Y939A, D942A

[3] = molecular target: T3, MBP-Kap114 DDAA (D928A/D929A) (S. cerevisiae, UniProt P53067 1-1004, D928A | D929A); test: as above; conditions: both partners purified
T3 construct: Kap114, S. cerevisiae, h19loop mutant; source: E. coli BL21 Gold, purified; not shown: MBP, N-terminal, kept
T3 sequence (looked up): T1 sequence with D928A, D929A

B1: Nap1 FL (C200A, C249A, C272A) (natural protein, S. cerevisiae, UniProt P25293 1-417, looked up)
chain: MSDPIRTKPKSSMQIDNAPTPHNTPASVLNPSYLKNGNPVRAQAQEQDDKIGTINEEDILANQPLLLQSIQDRLGSLVGQDSGYVGGLPKNVKEKLLSLKTLQSELFEVEKEFQVEMFELENKFLQKYKPIWEQRSRIISGQEQPKPEQIAKGQEIVESLNETELLVDEEEKAQNDSEEEQVKGIPSFWLTALENLPIVADTITDRDAEVLEYLQDIGLEYLTDGRPGFKLLFRFDSSANPFFTNDILAKTYFYQKELGYSGDFIYDHAEGAEISWKDNAHNVTVDLEMRKQRNKTTKQVRTIEKITPIESFFNFFDPPKIQNEDQDEELEEDLEERLALDYSIGEQLKDKLIPRAVDWFTGAALEFEFEEDEEEADEDEDEEEDDDHGLEDDDGESAEEQDDFAGRPEQAPECKQS
notes: Nap1 (nucleosome assembly protein 1), S. cerevisiae, full length (FL), with C200A, C249A, C272A for specific labeling on 414C; pHAT4 vector, gift from Sheena D'Arcy; Counted as a dimer (Nap1_(2)) in all molar ratios; alone a mixture of dimers and tetramers; also called Nap1_(2); Nap1_(2) FL; source: E. coli BL21 gold, purified (Ni-NTA, TEV cleavage, HiTrap Q, Superdex S200)
stoichiometry N (Kap114): 1
stoichiometry N [1]: 2 and 4
binding result [2]: binds
binding result [3]: binds
